Like-named read-outs stand apart in the source and are kept apart here. One block for each substance: values may come before it.
Experiments:
Test in all cases: cell-based or functional assay
factor Xa (human) = factor Xa (human) (UniProt P00742)
thrombin (human) = thrombin (human) (UniProt P00734)
[1] = target: human neutrophil cathepsin G (human) (UniProt P08311)
[2] = target: human neutrophil elastase (human) (UniProt P08246)
human neutrophil elastase (human), sequence (P08246 30-247 limits assumed): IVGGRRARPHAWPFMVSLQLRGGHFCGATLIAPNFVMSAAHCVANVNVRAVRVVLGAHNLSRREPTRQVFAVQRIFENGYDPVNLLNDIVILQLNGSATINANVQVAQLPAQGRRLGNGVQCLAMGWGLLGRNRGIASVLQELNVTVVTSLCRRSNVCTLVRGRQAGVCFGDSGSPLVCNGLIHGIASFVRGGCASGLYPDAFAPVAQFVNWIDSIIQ

human neutrophil cathepsin G (human), sequence (P08311 21-244 limits assumed): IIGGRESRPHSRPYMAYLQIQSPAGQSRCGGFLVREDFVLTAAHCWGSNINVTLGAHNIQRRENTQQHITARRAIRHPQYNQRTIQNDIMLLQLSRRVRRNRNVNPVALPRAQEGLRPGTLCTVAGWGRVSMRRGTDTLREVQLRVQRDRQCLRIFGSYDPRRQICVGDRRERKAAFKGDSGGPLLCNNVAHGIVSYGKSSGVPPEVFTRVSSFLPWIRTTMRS

IC50 fXa/UFH; HCA #2 (factor Xa (human)): 0.017 µM
rsd. Xa catG; CA #8; stg1 conc 200 (factor Xa (human)): 1%
rsd. Xa catG; CA #8; stg1 conc 200 (% of no-ATIII control) (factor Xa (human)): 1
rsd. Xa catG; CA #9; stg1 conc 200 (factor Xa (human)): 1%
rsd. Xa catG; CA #9; stg1 conc 200 (% of no-ATIII control) (factor Xa (human)): 1
rsd. Xa hne; CA #8; stg1 conc 200 (factor Xa (human)): 90%
rsd. Xa hne; CA #8; stg1 conc 200 (% of no-ATIII control) (factor Xa (human)): 90
rsd. Xa hne; CA #9; stg1 conc 200 (factor Xa (human)): 106%
rsd. Xa hne; CA #9; stg1 conc 200 (% of no-ATIII control) (factor Xa (human)): 106
rsd. Xa no add; CA #8; stg1 conc 200 (factor Xa (human)): 1%
rsd. Xa no add; CA #8; stg1 conc 200 (% of no-ATIII control) (factor Xa (human)): 1
rsd. Xa no add; CA #9; stg1 conc 200 (% of no-ATIII control) (factor Xa (human)): 2
IC50 fXa/UFH; HCA #2 (factor Xa (human); record 2): 0.017 µM
rsd. IIa catG; CA #8; stg1 conc 200 (thrombin (human)): 0%
rsd. IIa catG; CA #8; stg1 conc 200 (% of no-ATIII control) (thrombin (human)): 0
rsd. IIa catG; CA #9; stg1 conc 200 (thrombin (human)): 2%
rsd. IIa catG; CA #9; stg1 conc 200 (% of no-ATIII control) (thrombin (human)): 2
rsd. IIa hne; CA #8; stg1 conc 200 (thrombin (human)): 90%
rsd. IIa hne; CA #8; stg1 conc 200 (% of no-ATIII control) (thrombin (human)): 90
rsd. IIa hne; CA #9; stg1 conc 200 (thrombin (human)): 100%
rsd. IIa hne; CA #9; stg1 conc 200 (% of no-ATIII control) (thrombin (human)): 100
rsd. IIa no add; CA #8; stg1 conc 200 (thrombin (human)): 1%
rsd. IIa no add; CA #8; stg1 conc 200 (% of no-ATIII control) (thrombin (human)): 1
rsd. IIa no add; CA #9; stg1 conc 200 (thrombin (human)): 2%
rsd. IIa no add; CA #9; stg1 conc 200 (% of no-ATIII control) (thrombin (human)): 2
Substance: ATIII N135A (from UniProt P01008 33-464)

IC50 fXa/UFH; HCA #4 (factor Xa (human)): 0.012 µM
rsd. Xa catG; CA #6; stg1 conc 200 (% of no-ATIII control) (factor Xa (human)): 0
rsd. Xa catG; CA #13; stg1 conc 200 (% of no-ATIII control) (factor Xa (human)): 1
rsd. Xa hne; CA #6; stg1 conc 200 (% of no-ATIII control) (factor Xa (human)): 81
rsd. Xa hne; CA #13; stg1 conc 200 (% of no-ATIII control) (factor Xa (human)): 87
rsd. Xa no add; CA #6; stg1 conc 200 (% of no-ATIII control) (factor Xa (human)): 0
rsd. Xa no add; CA #13; stg1 conc 200 (% of no-ATIII control) (factor Xa (human)): 2
IC50 IIa/UFH; HCA #4 (thrombin (human)): 0.013 µM
rsd. IIa catG; CA #6; stg1 conc 200 (% of no-ATIII control) (thrombin (human)): 0
rsd. IIa catG; CA #13; stg1 conc 200 (% of no-ATIII control) (thrombin (human)): 1
rsd. IIa hne; CA #6; stg1 conc 200 (% of no-ATIII control) (thrombin (human)): 81
rsd. IIa hne; CA #13; stg1 conc 200 (% of no-ATIII control) (thrombin (human)): 89
rsd. IIa no add; CA #6; stg1 conc 200 (% of no-ATIII control) (thrombin (human)): 0
rsd. IIa no add; CA #13; stg1 conc 200 (% of no-ATIII control) (thrombin (human)): 4
Substance: ATIII S137A (from UniProt P01008 33-464)

IC50 fXa/UFH; HCA #4 (factor Xa (human)): 0.013 µM
rsd. Xa catG; CA #12; stg1 conc 200 (% of no-ATIII control) (factor Xa (human)): 1
rsd. Xa catG; CA #17; stg1 conc 3 (% of no-ATIII control) (factor Xa (human)): 77
rsd. Xa catG; CA #17; stg1 conc 7 (% of no-ATIII control) (factor Xa (human)): 12
rsd. Xa catG; CA #17; stg1 conc 23 (% of no-ATIII control) (factor Xa (human)): -7
rsd. Xa hne; CA #14; stg1 conc 200 (% of no-ATIII control) (factor Xa (human)): 101
rsd. Xa hne; CA #17; stg1 conc 23 (% of no-ATIII control) (factor Xa (human)): 98
rsd. Xa no add; CA #17; stg1 conc 1 (% of no-ATIII control) (factor Xa (human)): 90
rsd. Xa no add; CA #17; stg1 conc 3 (% of no-ATIII control) (factor Xa (human)): 75
rsd. Xa no add; CA #17; stg1 conc 23 (% of no-ATIII control) (factor Xa (human)): 1
Substance: human plasma-derived ATIII (from UniProt P01008 33-464)

IC50 fXa/UFH; HCA #4 (factor Xa (human)): 0.013 µM
rsd. Xa catG; CA #12; stg1 conc 200 (factor Xa (human)): 1%
rsd. Xa catG; CA #17; stg1 conc 3 (factor Xa (human)): 77%
rsd. Xa catG; CA #17; stg1 conc 7 (factor Xa (human)): 12%
rsd. Xa catG; CA #17; stg1 conc 23 (factor Xa (human)): -7%
rsd. Xa hne; CA #14; stg1 conc 200 (factor Xa (human)): 101%
rsd. Xa hne; CA #17; stg1 conc 23 (factor Xa (human)): 98%
rsd. Xa no add; CA #17; stg1 conc 1 (factor Xa (human)): 90%
rsd. Xa no add; CA #17; stg1 conc 3 (factor Xa (human)): 75%
rsd. Xa no add; CA #17; stg1 conc 23 (factor Xa (human)): 1%
IC50 fXa/UFH; HCA #4 (factor Xa (human); record 2): 0.013 µM
rsd IIa, catG (CA #14, stg 1 conc 200) [1]: 1%
halflife, min (HNE/hep) [2]: 2.9 min
rsd IIa, HNE (CA #14, stg 1 conc 200) [2]: 100%
rsd Xa, HNE (CA #14, stg 1 conc 200) [2]: 101%
Substance: plasma-derived ATIII (from UniProt P01008 33-464)

Reference: US20060259987A1
